# Ends that are not written are not given here.
# What was measured:
# [1] = target: T1, extracellular domain (ECD) of IL-2Rβ (Homo sapiens, UniProt P14784); assay: Competitive binding of synthetic test peptides against phage clones on immobilized IL-2Rβ ECD; conditions: for Competition with phage clone peptide SEQ ID NO: 58: phage clone of IL-2β family 1; for Competition with phage clone peptide SEQ ID NO: 170: phage clone of IL-2β family 2A; for Competition with phage clone peptide SEQ ID NO: 83: phage clone of IL-2β family 2B; for Competition with phage clone peptide SEQ ID NO: 1034 or 1084: phage clone of IL-2β family 2C; for Competition with phage clone peptide SEQ ID NO: 1044: phage clone of IL-2β family 4
# T1 construct: Fc; purchased ACRObiosystems, Inc. ILB-H5253
# T1 sequence (P14784 27-239): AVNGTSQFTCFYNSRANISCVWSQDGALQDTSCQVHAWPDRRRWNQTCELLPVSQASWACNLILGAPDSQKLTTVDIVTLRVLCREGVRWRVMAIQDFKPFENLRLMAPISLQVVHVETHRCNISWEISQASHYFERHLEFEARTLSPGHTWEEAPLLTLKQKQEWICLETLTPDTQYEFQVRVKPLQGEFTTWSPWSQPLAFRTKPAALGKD
# Method: (§1) Competitive binding assays were performed to characterize the IL-2R binding sites for certain IL-2Rβ and to IL-2Rγc ligands.
# Representative phage clones displaying peptides from IL-2Rβ ligand families were bound to the extracellular domain (ECD) of IL-2Rβ immobilized in microtiter wells. Phage binding was conducted in the presence and absence of synthetic test peptides to determine if phage peptides and test peptides competed for binding to the same sites on IL-2Rβ. Synthetic test peptides were selected to represent peptides from IL-2Rβ ligand families, as well positive and negative control peptides.
# (§2) Phage binding to the immobilized IL-2Rβ ECD was detected by staining with antibody against phage coat proteins (anti-phage Ab), staining with labeled secondary antibody against the anti-phage Ab, and scored by reading OD in the microtiter plate optical reader.
# (§3) The ELISA signal for each phage binding in the presence and absence of the test peptides was compared to determine which synthetic peptides competed with which phage peptides for binding to the IL-2Rβ subunit.
# IL-2Rγc subunit = target: T2, IL-2Rγc subunit (Homo sapiens, UniProt P31785); assay: Competitive binding of synthetic test peptides against phage clones on IL-2Rγc; conditions: for Competition with phage clone peptide SEQ ID NO: 198: phage clone of IL-2Rγc family 1A; for Competition with phage clone peptide SEQ ID NO: 224: phage clone of IL-2Rγc family 1B; for Competition with phage clone peptide SEQ ID NO: 236: phage clone of IL-2Rγc family 2; for Competition with phage clone peptide SEQ ID NO: 248 or 1051: phage clone of IL-2Rγc family 3; for Competition with phage clone peptide SEQ ID NO: 266: phage clone of IL-2Rγc family 4; for Competition with phage clone peptide SEQ ID NO: 948: phage clone of IL-2Rγc family 5
# T2 construct: Fc; purchased ACRObiosystems, Inc. ILG-H5256
# T2 sequence (P31785 23-254): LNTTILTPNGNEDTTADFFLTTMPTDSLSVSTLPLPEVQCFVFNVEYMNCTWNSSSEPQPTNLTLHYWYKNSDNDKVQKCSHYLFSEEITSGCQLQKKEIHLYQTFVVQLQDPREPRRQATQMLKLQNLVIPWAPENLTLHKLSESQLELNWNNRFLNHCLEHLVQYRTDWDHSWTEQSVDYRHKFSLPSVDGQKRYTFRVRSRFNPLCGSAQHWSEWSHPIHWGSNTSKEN
# Method: as §1, §2, §3
# A similar study was performed to evaluate the binding of IL-2Rγc ligands.
# NK-92 cells = assay: STAT5 phosphorylation in NK-92 cells; format: cell-based, human; conditions: Western Blot, 0.1, 1 and 10 μM, 30 min
# Method: NK-92 cells were seeded in a 24-well plate at 4×10^5 cells, in 1 mL starvation medium (SM), and incubated overnight at 37° C., 5% CO2. The starvation medium contained RPMI 1640+20% FBS+2 mM L-glutamine+1 mM NaPyr+10 mM HEPES+0.1 mM BME (no rhIL-2 supplement).
# Treatment mixtures were of 1 pg/mL Anti-hIL-2 neutralizing antibody (0.2 mg/mL stock) or goat IgG control (1 mg/mL stock) were prepared.
# The treatment mixtures and the antibody mix were added to the cells for 30 min at 37° C., 5% CO2. Each sample was then transferred to a 1.5 mL microfuge tube and spun down at 1,500 RPM for 5 minutes. The cells were washed in 1 mL PBS and centrifuged again.
# A phosphatase and protease inhibitor cocktail (Thermo #78442) were added to mPER buffer at a 1:100 dilution. After the cells were pelleted, 50 μL of mPER buffer was added to each sample and pipetted repeatedly to homogenize.
# The lysates were centrifuged at 14,000 RPM for 5 min at RT. The supernatants were transferred to clean tubes and stored frozen at −80° C.
# The treatment reagents included Anti-STAT5 Antibody (rabbit), Cell Signaling No. 94205S; Anti-pSTAT5 Antibody (rabbit), Cell Signaling No. 4322S; and Goat anti-rabbit IgG-HRP, Jackson Immunoresearch No. 111-035-144.
Substance,Competition with phage clone peptide SEQ ID NO: 58 [1],Competition with phage clone peptide SEQ ID NO: 170 [1],Competition with phage clone peptide SEQ ID NO: 83 [1],Competition with phage clone peptide SEQ ID NO: 1034 or 1084 [1],Competition with phage clone peptide SEQ ID NO: 1044 [1],Competition with phage clone peptide SEQ ID NO: 198 (IL-2Rγc subunit),Competition with phage clone peptide SEQ ID NO: 224 (IL-2Rγc subunit),Competition with phage clone peptide SEQ ID NO: 236 (IL-2Rγc subunit),Competition with phage clone peptide SEQ ID NO: 248 or 1051 (IL-2Rγc subunit),Competition with phage clone peptide SEQ ID NO: 266 (IL-2Rγc subunit),Competition with phage clone peptide SEQ ID NO: 948 (IL-2Rγc subunit),further results
58 (YDCRIAQVGELCDL) [Peptide 58],+^1 (Peptide competes with phage binding.),+ (Peptide competes with phage binding.),+ (Peptide competes with phage binding.),+ (Peptide competes with phage binding.),−,−,−,−,−,−,−,
58 (YDCRIAQVGELCDL) [compound 58],,,,,,,,,,,,competition for binding to the binding site of the IL-2Rγc subunit with the group of IL-2Rγc ligands (IL-2Rγc subunit): does not compete
169 (NMCLVGDYWPSCQI) [Peptide 169],+ (Peptide competes with phage binding.),+ (Peptide competes with phage binding.),+ (Peptide competes with phage binding.),+ (Peptide competes with phage binding.),−,,,,,,,
202 (RTCTEWENVVLCWV) [Peptide 202],,,,,,+^1 (Peptide competes with phage binding.),+ (Peptide competes with phage binding.),+ (Peptide competes with phage binding.),+ (Peptide competes with phage binding.),+ (Peptide competes with phage binding.),−,
224 (DCSMWEGVELCW) [Peptide 224],−,−,−,−,−,+ (Peptide competes with phage binding.),+ (Peptide competes with phage binding.),+ (Peptide competes with phage binding.),+ (Peptide competes with phage binding.),+ (Peptide competes with phage binding.),−,
224 (DCSMWEGVELCW) [compound 224],,,,,,,,,,,,competition for binding to the binding site of the IL-2Rβ subunit with the group of IL-2Rβ ligands [1]: does not compete
948 (SLLKCYNASTCASVF) [Peptide 948],,,,,,−^2,−,−,−,−,+ (Peptide competes with phage binding.),
948 (SLLKCYNASTCASVF) [compound 948],,,,,,,,,,,,competition for binding to the binding site of the IL-2Rγc subunit with the group of IL-2Rγc ligands (IL-2Rγc subunit): does not compete
1041 (WESWNVGDLVNLVNW) [compound 1041],,,,,,,,,,,,competition for binding to the binding site of the IL-2Rβ subunit with the group of IL-2Rβ ligands [1]: does not compete
1044 (RSCYYKRPRLWCSE) [Peptide 1044],−^2,−,−,−,+ (Peptide competes with phage binding.),,,,,,,
1044 (RSCYYKRPRLWCSE) [compound 1044],,,,,,,,,,,,competition for binding to the binding site of the IL-2Rβ subunit with the group of IL-2Rβ ligands [1]: does not compete
Compound A: heterodimer of SEQ. ID. NO: 58 and SEQ ID. NO. 224 (chain 1 YDCRIAQVGELCDL; chain 2 DCSMWEGVELCW; cysteine pairing not given here; also: heterodimer),,,,,,,,,,,,STAT5 phosphorylation (pSTAT5) (NK-92 cells): induced
Compound B: heterodimer of SEQ. ID. NO: 58 and SEQ ID. NO. 237 (chain 1 YDCRIAQVGELCDL; chain 2 LCFSEFLGEWVDCN; cysteine pairing not given here; also: heterodimer),,,,,,,,,,,,STAT5 phosphorylation (pSTAT5) (NK-92 cells): induced
"SEQ ID NO: 248 or 1051: IL-2Rγc family 3 test peptide, SEQ ID NO: 248 or its modified form SEQ ID NO: 1051 (DLSDLSTFWLSQ; not fully specified)",,,,,,+ (Peptide competes with phage binding.),+ (Peptide competes with phage binding.),+ (Peptide competes with phage binding.),+ (Peptide competes with phage binding.),+ (Peptide competes with phage binding.),−,

# Continued, in another order:
Competition with phage clone peptide SEQ ID NO: 58 [1],Competition with phage clone peptide SEQ ID NO: 170 [1],Competition with phage clone peptide SEQ ID NO: 83 [1],Competition with phage clone peptide SEQ ID NO: 1034 or 1084 [1],Competition with phage clone peptide SEQ ID NO: 1044 [1],Competition with phage clone peptide SEQ ID NO: 198 (IL-2Rγc subunit),Competition with phage clone peptide SEQ ID NO: 224 (IL-2Rγc subunit),Competition with phage clone peptide SEQ ID NO: 236 (IL-2Rγc subunit),Competition with phage clone peptide SEQ ID NO: 248 or 1051 (IL-2Rγc subunit),Competition with phage clone peptide SEQ ID NO: 266 (IL-2Rγc subunit),Competition with phage clone peptide SEQ ID NO: 948 (IL-2Rγc subunit),Substance,further results
,,,,,+ (Peptide competes with phage binding.),+ (Peptide competes with phage binding.),+ (Peptide competes with phage binding.),+ (Peptide competes with phage binding.),+ (Peptide competes with phage binding.),−,236 (MCWLEWGEWVGSCL) [Peptide 236],
+ (Peptide competes with phage binding.),+ (Peptide competes with phage binding.),+ (Peptide competes with phage binding.),+ (Peptide competes with phage binding.),−,,,,,,,1042 (CYEVGDYCQSPL) [Peptide 1042],
